In IntAct's records for PubMed 9488481:

B1: Death-associated protein kinase 3 (Mus musculus), O54784 (parent)
chain: MSTFRQEDVEDHYEMGEELGSGQFAIVRKCQQKGTGMEYAAKFIKKRRLPSSRRGVSREEIEREVSILREIRHPNIITLHDVFENKTDVVLILELVSGGELFDFLAEKESLTEDEATQFLKQILDGVHYLHSKRIAHFDLKPENIMLLDKHAASPRIKLIDFGIAHRIEAGSEFKNIFGTPEFVAPEIVNYEPLGLEADMWSIGVITYILLSGASPFLGETKQETLTNISAVNYDFDEEYFSSTSELAKDFIRRLLVKDPKRRMTIAQSLEHSWIKVRRREDGARKPERRRLRAARLREYSLKSHSSMPRNTSYASFERFSRVLEDVAAAEQGLRELQRGRRQCRERVCALRAAAEQREARCRDGSAGLGRDLRRLRTELGRTEALRTRAQEEARAALLGAGGLKRRLCRLENRYDALAAQVAAEVQFVRDLVRALEQERLQAECGVR
partner: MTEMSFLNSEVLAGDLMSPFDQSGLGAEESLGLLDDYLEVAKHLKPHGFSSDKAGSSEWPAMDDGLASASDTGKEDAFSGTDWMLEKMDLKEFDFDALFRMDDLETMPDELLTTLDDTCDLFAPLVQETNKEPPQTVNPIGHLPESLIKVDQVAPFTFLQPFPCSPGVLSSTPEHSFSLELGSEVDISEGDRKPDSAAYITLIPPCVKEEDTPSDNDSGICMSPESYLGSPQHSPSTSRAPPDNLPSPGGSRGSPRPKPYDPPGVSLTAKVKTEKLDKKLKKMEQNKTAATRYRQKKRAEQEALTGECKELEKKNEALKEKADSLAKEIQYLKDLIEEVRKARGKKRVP

Variants of: B1
Conditions: with atf4_mouse Atf4, Q06507

Row | Variant | effect of a mutation on the interaction
1 | V422A;V429A;L436A | disrupting interaction
